Changes are numbered by the printed parent chain. Names may count otherwise.
B1: S27K, V162T, S173P, G174K, S175P, F180Y, L184F, Q197K, Q198E, T297P: TY145 protease (SEQ ID NO 3) variant with these substitutions (protein, listed as Bacillus sp.)
chain: AVPSTQTPWGIKSIYNDQSITKTTGGKGIKVAVLDTGVYTSHLDLAGSAEQCKDFTQSNPLVDGSCTDRQGHGTHVAGTVLAHGGSNGQGVYGVAPQAKLWAYKVLGDNGSGYSDDIAAAIRHVADEASRTGSKVVINMSLGSSAKDSLIASAVDYAYGKGTLIVAAAGNSGPKPNTIGYPGGFVNAVAVAALENVKENGTYRVADFSSRGNPATAGDYIIQERDIEVSAPGASVESTWYTGGYNTISGTSMATPHVAGLAAKIWSANTSLSHSQLRTELQNRAKVYDIKGGIGAGPGDDYASGFGYPRVK
B2: S27K, S171N, S173P, G174R, S175P, F180Y, G182A, L184F, Q198E, N199K, R224G, T297P: TY145 protease (SEQ ID NO 3) variant with these substitutions (protein, listed as Bacillus sp.)
chain: B1 chain with T162V, S171N, K174R, G182A, K197Q, N199K, R224G
B3: S27K, S171D, S173P, G174R, S175P, G182A, L184F, Q198E, N199K, R224G, T297P: TY145 protease (SEQ ID NO 3) variant with these substitutions (protein, listed as Bacillus sp.)
chain: B1 chain with T162V, S171D, K174R, Y180F, G182A, K197Q, N199K, R224G
B4: K146N, S173P, S175P, F180Y: TY145 protease (SEQ ID NO 3) variant with these substitutions (protein, listed as Bacillus sp.)
chain: B1 chain with K27S, K146N, T162V, K174G, F184L, K197Q, E198Q, P297T
B5: K146F, S173P, S175P, F180Y: TY145 protease (SEQ ID NO 3) variant with these substitutions (protein, listed as Bacillus sp.)
chain: B1 chain with K27S, K146F, T162V, K174G, F184L, K197Q, E198Q, P297T
B6: K146W, S173P, S175P, F180Y: TY145 protease (SEQ ID NO 3) variant with these substitutions (protein, listed as Bacillus sp.)
chain: B1 chain with K27S, K146W, T162V, K174G, F184L, K197Q, E198Q, P297T
B7: S114Q, S173P, S175P, F180Y: TY145 protease (SEQ ID NO 3) variant with these substitutions (protein, listed as Bacillus sp.)
chain: B1 chain with K27S, S114Q, T162V, K174G, F184L, K197Q, E198Q, P297T
B8: S173P, S175P, F180Y, R224S: TY145 protease (SEQ ID NO 3) variant with these substitutions (protein, listed as Bacillus sp.)
chain: B1 chain with K27S, T162V, K174G, F184L, K197Q, E198Q, R224S, P297T
B9: I150A, S173P, S175P, F180Y: TY145 protease (SEQ ID NO 3) variant with these substitutions (protein, listed as Bacillus sp.)
chain: B1 chain with K27S, I150A, T162V, K174G, F184L, K197Q, E198Q, P297T
B10: I150N, S173P, S175P, F180Y: TY145 protease (SEQ ID NO 3) variant with these substitutions (protein, listed as Bacillus sp.)
chain: B1 chain with K27S, I150N, T162V, K174G, F184L, K197Q, E198Q, P297T
B11: S27K, I121V, S171N, S173P, G174R, S175P, F180Y, Q198E, R224S, T297P: TY145 protease (SEQ ID NO 3) variant with these substitutions (protein, listed as Bacillus sp.)
chain: B1 chain with I121V, T162V, S171N, K174R, F184L, K197Q, R224S
B12: K146A, S173P, S175P, F180Y: TY145 protease (SEQ ID NO 3) variant with these substitutions (protein, listed as Bacillus sp.)
chain: B1 chain with K27S, K146A, T162V, K174G, F184L, K197Q, E198Q, P297T
B13: K146T, S173P, S175P, F180Y: TY145 protease (SEQ ID NO 3) variant with these substitutions (protein, listed as Bacillus sp.)
chain: B1 chain with K27S, K146T, T162V, K174G, F184L, K197Q, E198Q, P297T

Test: Determination of binding constants of inhibitor (NNIC) in Model B detergent, Suc-AAPF-pNA read-out
Type: biochemical
Settings: Ki of variant with the mutation relative to variant without the mutation
Description: (§1) Purified protease variants are pre-diluted to approximately 0.2 mg/ml in dilution buffer. 40 μl diluted protease is then mixed with 40 μl inhibitor solution (Z-Gly-Ala-NHCH(CH2C6H4pOH)C(OH)(SO3Na)—H, wherein Z is benzyloxycarbonyl) or 40 μl 4-FPBA solution in the well of a 96 well microtiter plate (Nunc F 96-MTP). […] After 10 min mixing of protease and inhibitor at room temperature, 30 μl of the mixture is transferred to a microtiter plate (Nunc U96 PP 0.5 ml) with 270 μl Model B detergent in the wells resulting in inhibitor concentrations of 0-30 μM and 4-FPBA concentrations of 0-6000 μM. Protease, inhibitor and detergent is mixed for 1 hour using magnetic bars for 1 hour at room temperature to reach equilibrium. Then 20 μl is transferred to a microtiter plate (Nunc F 96-MTP). 100 μl substrate solution is added and after 5 sec mixing absorbance at 405 nm is measured every 20 sec for 5 min on a SpectraMax Plus reader. Slope from linear regression of initial increase in absorbance at 405 nm is used for calculation of apparent binding constants.
(§2) It is assumed that protease and inhibitor react according to the equation: E+I ? EI
(§3) Where E is the protease, I is the inhibitor and EI is the protease-inhibitor complex. […] The concentration of enzyme-inhibitor in the detergent solution is then given by:
(§4) where Etot is the total protease concentration ([Etot]=[E]+[EI]), Itot is the total inhibitor concentration ([Itot]=[I]+[EI]), and Ki is the equilibrium binding constant for the reaction. The measured slopes V are given by:
(§5) where V0 is the slope without inhibitor added. To calculate apparent binding constant Ki least square fitting of measured slopes at various inhibitor concentrations to this equation is performed with Ki and V0 as variables.
The Ki for the parent protease and for each variant was calculated as described above
(§6) Having the Ki for each variant, it is possible to calculate the effect of a single mutation, if data are available for at least two variants that differ only by that mutation. In this case, the relative Ki for the mutation is calculated:
(§7) [formula] A lower Ki is desirable, as a satisfactory inhibition can be obtained at a lower inhibitor concentration, so beneficial mutations have a relative Ki<1.0 The following table show such relative Kimutation. Each row show: • a mutation (column 1: “Mutation”) • a protease variant (relative to SEQ ID NO: 2) that comprise the mutation from column 1 (column 2: “Variant with the mutation”) • another protease variant (relative to SEQ ID NO: 2), that differs from the one in column 2 only by not having the mutation in column 1 (column 3: “Variant without the mutation”) • Relative Kimutation for the mutation in column 1, in the context of the variant in column 3, measured in Model B detergent (column 4: “inhibitor binding in Model B”) • Relative Kimutation for the mutation in column 1, in the context of the variant in column 3, measured in Tris buffer at pH 8 (column 5: “inhibitor binding in Tris buffer pH 8”)
Ki were calculated as shown in Example 3. The Improvement Factor (IF) or Relative

Inhibitor-binding relative Kimutation, inhibitor binding in Model B (Table 4b) | Molecule
0.17 | B1
0.69 | B2
0.49 | B3

Same assay, conditions: Ki of variant with the mutation relative to variant without the mutation, <1.0 beneficial

Inhibitor-binding relative Kimutation, inhibitor binding in Model B | Molecule
0.93 | B4
0.25 | B5
0.23 | B6
0.63 | B7
0.50 | B8
0.50 | B9
0.35 | B10
0.56 | B11
0.34 | B12
0.08 | B13

Test: Determination of binding constants of inhibitor in Tris buffer at pH 8
Type: biochemical
Settings: Ki of variant with the mutation relative to variant without the mutation
Description: as §1, §2, §3, §4, §5, §6, §7

Inhibitor-binding relative Kimutation, inhibitor binding in Tris buffer pH 8 | Molecule
0.91 | B4
0.19 | B5
0.16 | B6
0.34 | B7
0.40 | B9
0.21 | B10
0.29 | B12
0.06 | B13
